In publication PMC7335425 (Cell, 2020):

Molecular target: the molecule itself
Experiment: negative stain EM

B1: LetB L243N, TM helix deleted (domain or fragment, E. coli, UniProt P76272 43-877, looked up)
chain: QDRGNTVTIDFMSADGIVPGRTPVRYQGVEVGTVQDISLSDDLRKIEVKVSIKSDMKDALREETQFWLVTPKASLAGVSGLDALVGGNYIGMMPGKGKEQDHFVALDTQPKYRLDNGDLMIHLQAPDLGSLNSGSLVYFRKIPVGKVYDYAINPNKQGVVIDVLIERRFTDLVKKGSRFWNVSGVDANVSISGAKVKLESNAALVNGAIAFDSPEESKPAEAEDTFGLYEDLAHSQRGVIIKLELPSGAGLTADSTPLMYQGLEVGQLTKLDLNPGGKVTGEMTVDPSVVTLLRENTRIELRNPKLSLSDANLSALLTGKTFELVPGDGEPRKEFVVVPGEKALLHEPDVLTLTLTAPESYGIDAGQPLILHGVQVGQVIDRKLTSKGVTFTVAIEPQHRELVKGDSKFVVNSRVDVKVGLDGVEFLGASASEWINGGIRILPGDKGEMKASYPLYANLEKALENSLSDLPTTTVSLSAETLPDVQAGSVVLYRKFEVGEVITVRPRANAFDIDLHIKPEYRNLLTSNSVFWAEGGAKVQLNGSGLTVQASPLSRALKGAISFDNLSGASASQRKGDKRILYASETAARAVGGQITLHAFDAGKLAVGMPIRYLGIDIGQIQTLDLITARNEVQAKAVLYPEYVQTFARGGTRFSVVTPQISAAGVEHLDTILQPYINVEPGRGNPRRDFELQEATITDSRYLDGLSIIVEAPEAGSLGIGTPVLFRGLEVGTVTGMTLGTLSDRVMIAMRISKRYQHLVRNNSVFWLASGYSLDFGLTGGVVKTGTFNQFIRGGIAFATPPGTPLAPKAQEGKHFLLQESEPKEWREWGTALPK
  stoichiometry N: 6

B2: LetB L358N, TM helix deleted (domain or fragment, E. coli, UniProt P76272 43-877, looked up)
chain: QDRGNTVTIDFMSADGIVPGRTPVRYQGVEVGTVQDISLSDDLRKIEVKVSIKSDMKDALREETQFWLVTPKASLAGVSGLDALVGGNYIGMMPGKGKEQDHFVALDTQPKYRLDNGDLMIHLQAPDLGSLNSGSLVYFRKIPVGKVYDYAINPNKQGVVIDVLIERRFTDLVKKGSRFWNVSGVDANVSISGAKVKLESLAALVNGAIAFDSPEESKPAEAEDTFGLYEDLAHSQRGVIIKLELPSGAGLTADSTPLMYQGLEVGQLTKLDLNPGGKVTGEMTVDPSVVTLLRENTRIELRNPKLSLSDANLSANLTGKTFELVPGDGEPRKEFVVVPGEKALLHEPDVLTLTLTAPESYGIDAGQPLILHGVQVGQVIDRKLTSKGVTFTVAIEPQHRELVKGDSKFVVNSRVDVKVGLDGVEFLGASASEWINGGIRILPGDKGEMKASYPLYANLEKALENSLSDLPTTTVSLSAETLPDVQAGSVVLYRKFEVGEVITVRPRANAFDIDLHIKPEYRNLLTSNSVFWAEGGAKVQLNGSGLTVQASPLSRALKGAISFDNLSGASASQRKGDKRILYASETAARAVGGQITLHAFDAGKLAVGMPIRYLGIDIGQIQTLDLITARNEVQAKAVLYPEYVQTFARGGTRFSVVTPQISAAGVEHLDTILQPYINVEPGRGNPRRDFELQEATITDSRYLDGLSIIVEAPEAGSLGIGTPVLFRGLEVGTVTGMTLGTLSDRVMIAMRISKRYQHLVRNNSVFWLASGYSLDFGLTGGVVKTGTFNQFIRGGIAFATPPGTPLAPKAQEGKHFLLQESEPKEWREWGTALPK
  stoichiometry N: 6

B3: LetB V247N, TM helix deleted (domain or fragment, E. coli, UniProt P76272 43-877, looked up)
chain: QDRGNTVTIDFMSADGIVPGRTPVRYQGVEVGTVQDISLSDDLRKIEVKVSIKSDMKDALREETQFWLVTPKASLAGVSGLDALVGGNYIGMMPGKGKEQDHFVALDTQPKYRLDNGDLMIHLQAPDLGSLNSGSLVYFRKIPVGKVYDYAINPNKQGVVIDVLIERRFTDLVKKGSRFWNVSGVDANVSISGAKVKLESLAALNNGAIAFDSPEESKPAEAEDTFGLYEDLAHSQRGVIIKLELPSGAGLTADSTPLMYQGLEVGQLTKLDLNPGGKVTGEMTVDPSVVTLLRENTRIELRNPKLSLSDANLSALLTGKTFELVPGDGEPRKEFVVVPGEKALLHEPDVLTLTLTAPESYGIDAGQPLILHGVQVGQVIDRKLTSKGVTFTVAIEPQHRELVKGDSKFVVNSRVDVKVGLDGVEFLGASASEWINGGIRILPGDKGEMKASYPLYANLEKALENSLSDLPTTTVSLSAETLPDVQAGSVVLYRKFEVGEVITVRPRANAFDIDLHIKPEYRNLLTSNSVFWAEGGAKVQLNGSGLTVQASPLSRALKGAISFDNLSGASASQRKGDKRILYASETAARAVGGQITLHAFDAGKLAVGMPIRYLGIDIGQIQTLDLITARNEVQAKAVLYPEYVQTFARGGTRFSVVTPQISAAGVEHLDTILQPYINVEPGRGNPRRDFELQEATITDSRYLDGLSIIVEAPEAGSLGIGTPVLFRGLEVGTVTGMTLGTLSDRVMIAMRISKRYQHLVRNNSVFWLASGYSLDFGLTGGVVKTGTFNQFIRGGIAFATPPGTPLAPKAQEGKHFLLQESEPKEWREWGTALPK
  stoichiometry N: 6

B4: LetB L355N, TM helix deleted (domain or fragment, E. coli, UniProt P76272 43-877, looked up)
chain: QDRGNTVTIDFMSADGIVPGRTPVRYQGVEVGTVQDISLSDDLRKIEVKVSIKSDMKDALREETQFWLVTPKASLAGVSGLDALVGGNYIGMMPGKGKEQDHFVALDTQPKYRLDNGDLMIHLQAPDLGSLNSGSLVYFRKIPVGKVYDYAINPNKQGVVIDVLIERRFTDLVKKGSRFWNVSGVDANVSISGAKVKLESLAALVNGAIAFDSPEESKPAEAEDTFGLYEDLAHSQRGVIIKLELPSGAGLTADSTPLMYQGLEVGQLTKLDLNPGGKVTGEMTVDPSVVTLLRENTRIELRNPKLSLSDANNSALLTGKTFELVPGDGEPRKEFVVVPGEKALLHEPDVLTLTLTAPESYGIDAGQPLILHGVQVGQVIDRKLTSKGVTFTVAIEPQHRELVKGDSKFVVNSRVDVKVGLDGVEFLGASASEWINGGIRILPGDKGEMKASYPLYANLEKALENSLSDLPTTTVSLSAETLPDVQAGSVVLYRKFEVGEVITVRPRANAFDIDLHIKPEYRNLLTSNSVFWAEGGAKVQLNGSGLTVQASPLSRALKGAISFDNLSGASASQRKGDKRILYASETAARAVGGQITLHAFDAGKLAVGMPIRYLGIDIGQIQTLDLITARNEVQAKAVLYPEYVQTFARGGTRFSVVTPQISAAGVEHLDTILQPYINVEPGRGNPRRDFELQEATITDSRYLDGLSIIVEAPEAGSLGIGTPVLFRGLEVGTVTGMTLGTLSDRVMIAMRISKRYQHLVRNNSVFWLASGYSLDFGLTGGVVKTGTFNQFIRGGIAFATPPGTPLAPKAQEGKHFLLQESEPKEWREWGTALPK
  stoichiometry N: 6

B5: LetB L246N, TM helix deleted (domain or fragment, E. coli, UniProt P76272 43-877, looked up)
chain: QDRGNTVTIDFMSADGIVPGRTPVRYQGVEVGTVQDISLSDDLRKIEVKVSIKSDMKDALREETQFWLVTPKASLAGVSGLDALVGGNYIGMMPGKGKEQDHFVALDTQPKYRLDNGDLMIHLQAPDLGSLNSGSLVYFRKIPVGKVYDYAINPNKQGVVIDVLIERRFTDLVKKGSRFWNVSGVDANVSISGAKVKLESLAANVNGAIAFDSPEESKPAEAEDTFGLYEDLAHSQRGVIIKLELPSGAGLTADSTPLMYQGLEVGQLTKLDLNPGGKVTGEMTVDPSVVTLLRENTRIELRNPKLSLSDANLSALLTGKTFELVPGDGEPRKEFVVVPGEKALLHEPDVLTLTLTAPESYGIDAGQPLILHGVQVGQVIDRKLTSKGVTFTVAIEPQHRELVKGDSKFVVNSRVDVKVGLDGVEFLGASASEWINGGIRILPGDKGEMKASYPLYANLEKALENSLSDLPTTTVSLSAETLPDVQAGSVVLYRKFEVGEVITVRPRANAFDIDLHIKPEYRNLLTSNSVFWAEGGAKVQLNGSGLTVQASPLSRALKGAISFDNLSGASASQRKGDKRILYASETAARAVGGQITLHAFDAGKLAVGMPIRYLGIDIGQIQTLDLITARNEVQAKAVLYPEYVQTFARGGTRFSVVTPQISAAGVEHLDTILQPYINVEPGRGNPRRDFELQEATITDSRYLDGLSIIVEAPEAGSLGIGTPVLFRGLEVGTVTGMTLGTLSDRVMIAMRISKRYQHLVRNNSVFWLASGYSLDFGLTGGVVKTGTFNQFIRGGIAFATPPGTPLAPKAQEGKHFLLQESEPKEWREWGTALPK
  stoichiometry N: 6

B6: LetB L359N, TM helix deleted (domain or fragment, E. coli, UniProt P76272 43-877, looked up)
chain: QDRGNTVTIDFMSADGIVPGRTPVRYQGVEVGTVQDISLSDDLRKIEVKVSIKSDMKDALREETQFWLVTPKASLAGVSGLDALVGGNYIGMMPGKGKEQDHFVALDTQPKYRLDNGDLMIHLQAPDLGSLNSGSLVYFRKIPVGKVYDYAINPNKQGVVIDVLIERRFTDLVKKGSRFWNVSGVDANVSISGAKVKLESLAALVNGAIAFDSPEESKPAEAEDTFGLYEDLAHSQRGVIIKLELPSGAGLTADSTPLMYQGLEVGQLTKLDLNPGGKVTGEMTVDPSVVTLLRENTRIELRNPKLSLSDANLSALNTGKTFELVPGDGEPRKEFVVVPGEKALLHEPDVLTLTLTAPESYGIDAGQPLILHGVQVGQVIDRKLTSKGVTFTVAIEPQHRELVKGDSKFVVNSRVDVKVGLDGVEFLGASASEWINGGIRILPGDKGEMKASYPLYANLEKALENSLSDLPTTTVSLSAETLPDVQAGSVVLYRKFEVGEVITVRPRANAFDIDLHIKPEYRNLLTSNSVFWAEGGAKVQLNGSGLTVQASPLSRALKGAISFDNLSGASASQRKGDKRILYASETAARAVGGQITLHAFDAGKLAVGMPIRYLGIDIGQIQTLDLITARNEVQAKAVLYPEYVQTFARGGTRFSVVTPQISAAGVEHLDTILQPYINVEPGRGNPRRDFELQEATITDSRYLDGLSIIVEAPEAGSLGIGTPVLFRGLEVGTVTGMTLGTLSDRVMIAMRISKRYQHLVRNNSVFWLASGYSLDFGLTGGVVKTGTFNQFIRGGIAFATPPGTPLAPKAQEGKHFLLQESEPKEWREWGTALPK
  stoichiometry N: 6

B7: LetB three-ring truncation mutant (rings 2, 3, 4 and 5 removed), TM helix deleted (domain or fragment)
chain: QDRGNTVTIDFMSADGIVPGRTPVRYQGVEVGTVQDISLSDDLRKIEVKVSIKSDMKDALREETQFWLVTPKASLAGVSGLDALVGGNYIGMMPGKGKEQDHFVALDTQPKYRLDNGGGQITLHAFDAGKLAVGMPIRYLGIDIGQIQTLDLITARNEVQAKAVLYPEYVQTFARGGTRFSVVTPQISAAGVEHLDTILQPYINVEPGRGNPRRDFELQEATITDSRYLDGLSIIVEAPEAGSLGIGTPVLFRGLEVGTVTGMTLGTLSDRVMIAMRISKRYQHLVRNNSVFWLASGYSLDFGLTGGVVKTGTFNQFIRGGIAFATPPGTPLAPKAQEGKHFLLQESEPKEWREWGTALPK
  stoichiometry N: 6

B8: LetB two-ring truncation mutant, TM helix deleted (domain or fragment)
chain: QDRGNTVTIDFMSADGIVPGRTPVRYQGVEVGTVQDISLSDDLRKIEVKVSIKSDMKDALREETQFWLVTPKASLAGVSGLDALVGGNYIGMMPGKGKEQDHFVALDTQPKYRLDNGDGLSIIVEAPEAGSLGIGTPVLFRGLEVGTVTGMTLGTLSDRVMIAMRISKRYQHLVRNNSVFWLASGYSLDFGLTGGVVKTGTFNQFIRGGIAFATPPGTPLAPKAQEGKHFLLQESEPKEWREWGTALPK
  stoichiometry N: 6

B9: LetB four-ring mutant 1–3-4–7, TM helix deleted (domain or fragment)
chain: QDRGNTVTIDFMSADGIVPGRTPVRYQGVEVGTVQDISLSDDLRKIEVKVSIKSDMKDALREETQFWLVTPKASLAGVSGLDALVGGNYIGMMPGKGKEQDHFVALDTQPKYRLDNGRGVIIKLELPSGAGLTADSTPLMYQGLEVGQLTKLDLNPGGKVTGEMTVDPSVVTLLRENTRIELRNPKLSLSDANLSALLTGKTFELVPGDGEPRKEFVVVPGEKALLHEPDVLTLTLTAPESYGIDAGQPLILHGVQVGQVIDRKLTSKGVTFTVAIEPQHRELVKGDSKFVVNSRVDVKVGLDGVEFLGASASEWINGGIRILPGDKGEMKASYPLYANLEKALENSLSDLPTDGLSIIVEAPEAGSLGIGTPVLFRGLEVGTVTGMTLGTLSDRVMIAMRISKRYQHLVRNNSVFWLASGYSLDFGLTGGVVKTGTFNQFIRGGIAFATPPGTPLAPKAQEGKHFLLQESEPKEWREWGTALPK
  stoichiometry N: 6
